Laboratory results as given in US20250215097A1 (BEIJING TIANNUOJIANCHENG PHARMA TECH, published 2025).

T1: human CCR4 (human, UniProt P51679 1-360)
T1 construct: also called hCCR4; human CCR4+ cells
T1 sequence: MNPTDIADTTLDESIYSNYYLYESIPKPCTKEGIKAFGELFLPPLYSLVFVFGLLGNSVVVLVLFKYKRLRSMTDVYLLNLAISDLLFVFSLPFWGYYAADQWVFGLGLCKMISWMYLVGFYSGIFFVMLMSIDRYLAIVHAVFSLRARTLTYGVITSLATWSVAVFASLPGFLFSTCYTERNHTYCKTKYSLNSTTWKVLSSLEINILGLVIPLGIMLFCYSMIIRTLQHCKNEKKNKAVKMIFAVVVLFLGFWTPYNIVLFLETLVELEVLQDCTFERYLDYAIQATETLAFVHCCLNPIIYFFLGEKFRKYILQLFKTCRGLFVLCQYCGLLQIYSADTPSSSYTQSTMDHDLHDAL

B1: 144D2 N33V (Fab, V domains shown)
VH: EVQLVESGGGLVQPKGSLKLSCAASGFTFNAFAMNWVRQAPGKGLEWVARIRSKSNNYATYYADSVIDRFTISRDDSQSMLYLQMNNLKTEDTAMYYCVRGKEAGAYYAMDYWGQGTSVTVSS
VL: DIVMTQAAPSVPVTPGESVSISCRSSKSLLHSVGNTYLYWFLQRPGQSPQLLIYRMSNLASGVPDRFSGSGSGTAFTLRISRVEAEDVGVYYCMQHLEYPLTFGAGTKLEIK
notes: Purified Fab mutant
B2: 144D2 G34Y (Fab, V domains shown)
VH: EVQLVESGGGLVQPKGSLKLSCAASGFTFNAFAMNWVRQAPGKGLEWVARIRSKSNNYATYYADSVIDRFTISRDDSQSMLYLQMNNLKTEDTAMYYCVRGKEAGAYYAMDYWGQGTSVTVSS
VL: DIVMTQAAPSVPVTPGESVSISCRSSKSLLHSNYNTYLYWFLQRPGQSPQLLIYRMSNLASGVPDRFSGSGSGTAFTLRISRVEAEDVGVYYCMQHLEYPLTFGAGTKLEIK
notes: Purified Fab mutant
B3: 144D2 N33I (Fab, V domains shown)
VH: EVQLVESGGGLVQPKGSLKLSCAASGFTFNAFAMNWVRQAPGKGLEWVARIRSKSNNYATYYADSVIDRFTISRDDSQSMLYLQMNNLKTEDTAMYYCVRGKEAGAYYAMDYWGQGTSVTVSS
VL: DIVMTQAAPSVPVTPGESVSISCRSSKSLLHSIGNTYLYWFLQRPGQSPQLLIYRMSNLASGVPDRFSGSGSGTAFTLRISRVEAEDVGVYYCMQHLEYPLTFGAGTKLEIK
notes: Purified Fab mutant
B4: 144D2 G34V (Fab, V domains shown)
VH: EVQLVESGGGLVQPKGSLKLSCAASGFTFNAFAMNWVRQAPGKGLEWVARIRSKSNNYATYYADSVIDRFTISRDDSQSMLYLQMNNLKTEDTAMYYCVRGKEAGAYYAMDYWGQGTSVTVSS
VL: DIVMTQAAPSVPVTPGESVSISCRSSKSLLHSNVNTYLYWFLQRPGQSPQLLIYRMSNLASGVPDRFSGSGSGTAFTLRISRVEAEDVGVYYCMQHLEYPLTFGAGTKLEIK
notes: Purified Fab mutant
B5: 144D2 N33Y (Fab, V domains shown)
VH: EVQLVESGGGLVQPKGSLKLSCAASGFTFNAFAMNWVRQAPGKGLEWVARIRSKSNNYATYYADSVIDRFTISRDDSQSMLYLQMNNLKTEDTAMYYCVRGKEAGAYYAMDYWGQGTSVTVSS
VL: DIVMTQAAPSVPVTPGESVSISCRSSKSLLHSYGNTYLYWFLQRPGQSPQLLIYRMSNLASGVPDRFSGSGSGTAFTLRISRVEAEDVGVYYCMQHLEYPLTFGAGTKLEIK
notes: Purified Fab mutant
B6: 144D2 N33A (Fab, V domains shown)
VH: EVQLVESGGGLVQPKGSLKLSCAASGFTFNAFAMNWVRQAPGKGLEWVARIRSKSNNYATYYADSVIDRFTISRDDSQSMLYLQMNNLKTEDTAMYYCVRGKEAGAYYAMDYWGQGTSVTVSS
VL: DIVMTQAAPSVPVTPGESVSISCRSSKSLLHSAGNTYLYWFLQRPGQSPQLLIYRMSNLASGVPDRFSGSGSGTAFTLRISRVEAEDVGVYYCMQHLEYPLTFGAGTKLEIK
notes: Purified Fab mutant from E. coli TG1, Ni-NTA purified
B7: 144D2 G34T (Fab, V domains shown)
VH: EVQLVESGGGLVQPKGSLKLSCAASGFTFNAFAMNWVRQAPGKGLEWVARIRSKSNNYATYYADSVIDRFTISRDDSQSMLYLQMNNLKTEDTAMYYCVRGKEAGAYYAMDYWGQGTSVTVSS
VL: DIVMTQAAPSVPVTPGESVSISCRSSKSLLHSNTNTYLYWFLQRPGQSPQLLIYRMSNLASGVPDRFSGSGSGTAFTLRISRVEAEDVGVYYCMQHLEYPLTFGAGTKLEIK
notes: Purified Fab mutant
B8: 144D2 N33R (Fab, V domains shown)
VH: EVQLVESGGGLVQPKGSLKLSCAASGFTFNAFAMNWVRQAPGKGLEWVARIRSKSNNYATYYADSVIDRFTISRDDSQSMLYLQMNNLKTEDTAMYYCVRGKEAGAYYAMDYWGQGTSVTVSS
VL: DIVMTQAAPSVPVTPGESVSISCRSSKSLLHSRGNTYLYWFLQRPGQSPQLLIYRMSNLASGVPDRFSGSGSGTAFTLRISRVEAEDVGVYYCMQHLEYPLTFGAGTKLEIK
notes: Purified Fab mutant
B9: 144D2 G34R (Fab, V domains shown)
VH: EVQLVESGGGLVQPKGSLKLSCAASGFTFNAFAMNWVRQAPGKGLEWVARIRSKSNNYATYYADSVIDRFTISRDDSQSMLYLQMNNLKTEDTAMYYCVRGKEAGAYYAMDYWGQGTSVTVSS
VL: DIVMTQAAPSVPVTPGESVSISCRSSKSLLHSNRNTYLYWFLQRPGQSPQLLIYRMSNLASGVPDRFSGSGSGTAFTLRISRVEAEDVGVYYCMQHLEYPLTFGAGTKLEIK
notes: Purified Fab mutant
B10: 144D2 M56T (Fab, V domains shown)
VH: EVQLVESGGGLVQPKGSLKLSCAASGFTFNAFAMNWVRQAPGKGLEWVARIRSKSNNYATYYADSVIDRFTISRDDSQSMLYLQMNNLKTEDTAMYYCVRGKEAGAYYAMDYWGQGTSVTVSS
VL: DIVMTQAAPSVPVTPGESVSISCRSSKSLLHSNGNTYLYWFLQRPGQSPQLLIYRTSNLASGVPDRFSGSGSGTAFTLRISRVEAEDVGVYYCMQHLEYPLTFGAGTKLEIK
notes: Purified Fab mutant
B11: 144D2 G34I (Fab, V domains shown)
VH: EVQLVESGGGLVQPKGSLKLSCAASGFTFNAFAMNWVRQAPGKGLEWVARIRSKSNNYATYYADSVIDRFTISRDDSQSMLYLQMNNLKTEDTAMYYCVRGKEAGAYYAMDYWGQGTSVTVSS
VL: DIVMTQAAPSVPVTPGESVSISCRSSKSLLHSNINTYLYWFLQRPGQSPQLLIYRMSNLASGVPDRFSGSGSGTAFTLRISRVEAEDVGVYYCMQHLEYPLTFGAGTKLEIK
notes: Purified Fab mutant
B12: 144D2 M56G (Fab, V domains shown)
VH: EVQLVESGGGLVQPKGSLKLSCAASGFTFNAFAMNWVRQAPGKGLEWVARIRSKSNNYATYYADSVIDRFTISRDDSQSMLYLQMNNLKTEDTAMYYCVRGKEAGAYYAMDYWGQGTSVTVSS
VL: DIVMTQAAPSVPVTPGESVSISCRSSKSLLHSNGNTYLYWFLQRPGQSPQLLIYRGSNLASGVPDRFSGSGSGTAFTLRISRVEAEDVGVYYCMQHLEYPLTFGAGTKLEIK
notes: Purified Fab mutant
B13: 144D2 M56A (Fab, V domains shown)
VH: EVQLVESGGGLVQPKGSLKLSCAASGFTFNAFAMNWVRQAPGKGLEWVARIRSKSNNYATYYADSVIDRFTISRDDSQSMLYLQMNNLKTEDTAMYYCVRGKEAGAYYAMDYWGQGTSVTVSS
VL: DIVMTQAAPSVPVTPGESVSISCRSSKSLLHSNGNTYLYWFLQRPGQSPQLLIYRASNLASGVPDRFSGSGSGTAFTLRISRVEAEDVGVYYCMQHLEYPLTFGAGTKLEIK
notes: Purified Fab mutant
B14: 29A8 anti-CCR8 chimeric antibody (antibody, V domains shown)
VH: EVQLVESGGGLVQPKGSLKLSCAASGFTFNAFAMNWVRQAPGKGLEWVARIRSKSNNYATYYADSVIDRFTISRDDSQSMLYLQMNNLKTEDTAMYYCVRGKEAGAYYAMDYWGQGTSVTVSS
VL: DIVMTQAAPSVPVTPGESVSISCRSSKSLLHSNGNTYLYWFLQRPGQSPQLLIYRMSNLASGVPDRFSGSGSGTAFTLRISKVEAEDVGVYYCMQHLEYPFTFGGGTKLEIK
B15: 30A7 anti-CCR8 chimeric antibody (antibody, V domains shown)
VH: QVQLVESGGGLVQPKGSLKLSCAASGFTFNTYAMNWVRQAPGKGLEWVARIRSKSNYYATYYADSVKDRFTISRDDSQSMLYLQMNNLKTEDTAMYYCLRGKEAGAYYAMDYWGQGTSVTVSS
VL: DIVMTQAAPSVPVTPGESVSISCRSSKSLLHSNGNTYLYWFLQRPGQSPQLLIYRMSNLASGVPDRFSGSGSGTAFTLRISRVEAEDVGVYYCMQHLEYPFTFGAGTKLEIK
B16: 87D8 Fab antibody (Fab, V domains shown)
VH: EVQLVESGGGLVQPKGSLRLSCAASGFTFNTYAMNWVRQAPGKGLEWIARIRSKSNNYATYYADSVKDRFTISRDDSQSMLYLQMNNLKTEDTAMYYCVRGKEAGAYYAMDYWGQGTSVTVSS
VL: DIVMTQAAPSVPVTPGESVSISCRSSKSLLHSNGNTYLYWFLQRPGQSPQLLIYRMSNLASGVPDRFSGSGSGTAFTLRISRVEAEDVGVYYCMQHLEYPLTFGAGTKLELK
notes: also called clone 87D8

Each binder was assayed against T2, human CCR8 (human, UniProt P51685 1-355) (assay: flow cytometry, purified Fab on CHO-hCCR8 cells).
T2 construct: Full-length human CCR8 stably expressed on CHO or HEK293 cells; also endogenous on HuT78 cells in one ADCC assay; also called hCCR8; CHO-hCCR8
T2 sequence (P51685 whole entry): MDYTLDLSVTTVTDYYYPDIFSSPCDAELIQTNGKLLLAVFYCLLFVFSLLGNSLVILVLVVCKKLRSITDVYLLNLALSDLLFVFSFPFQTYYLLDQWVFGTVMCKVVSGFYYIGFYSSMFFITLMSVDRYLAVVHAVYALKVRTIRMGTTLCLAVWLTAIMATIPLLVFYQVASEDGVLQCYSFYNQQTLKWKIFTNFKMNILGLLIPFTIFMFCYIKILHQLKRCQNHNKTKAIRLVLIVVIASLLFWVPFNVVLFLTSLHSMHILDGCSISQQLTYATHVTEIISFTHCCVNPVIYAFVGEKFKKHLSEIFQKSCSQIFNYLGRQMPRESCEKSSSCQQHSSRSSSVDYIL
For B1, the EC50 was 5.72 nM. B2 showed an EC50 of 2.22 nM. With B3 the EC50 was 6.68 nM. Work on B4 yielded an EC50 of 3.16 nM. Work on B5 yielded an EC50 of 13.8 nM. Work on B6 yielded an EC50 of 8.27 nM. With B7 the EC50 was 2.83 nM. Work on B8 yielded an EC50 of 6.75 nM. For B9, the EC50 was 1.34 nM. For B10, the EC50 was 2.69 nM. B11 gave an EC50 of 3.87 nM. For B12, the EC50 was 4.85 nM. Work on B13 yielded an EC50 of 4.71 nM.

These binders were tested against T2, human CCR8 (assay: flow cytometry, chimeric IgG on CHO-hCCR8 cells).
Protocol: 5×10⁴ CHO-hCCR8 or CHO-cynoCCR8 cells were added per well in a 96-well U-shaped plate and centrifuged to discard the supernatant, 100 μL of a gradiently diluted anti-CCR8 chimeric antibody or anti-KLH isotype control antibody was added per well and the mixture was incubated on ice for 60 minutes. After the unbound primary antibody was washed away, 50 μL of a secondary antibody AlexaFluro647 anti-human IgG (Jackson Immuno Research #109-606-170) was added per well and the mixture was incubated on ice for 30 minutes. After the washing, 50 μL of 5 μg/mL of a PI/BSA solution was added to each well and the mixture was incubated on ice for 5 minutes. Then excess secondary antibody was washed away with 0.5% BSA, the cells were resuspended by adding a PBS solution, and binding of the antibody to the cells was detected using a flow cytometer (Intellicyte iQue). The fluorescence value of a Pi-negative cell population was analyzed. Cell-binding curves were fitted by Graphpad Prism 7 (FIG. 2). The chimeric antibodies of 87D8, 102H5, 109F6, 110G2, 113B3, 139A9, 144D2, etc. all bound with high affinities to human CCR8+ cells CHO-hCCR8 and cynomolgus monkey CCR8+ cells CHO-cynoCCR8.
B14 was tested, and the EC50 was 3.24 nM. With B15 the EC50 was 3.39 nM.

What follows are binders tested against T1, human CCR4 (assay: flow cytometry of purified Fab on cells stably expressing human CCR4).
Protocol: The positive clones obtained in example 1 were re-induced to express and purified to obtain a Fab antibody. The binding to cells stably expressing human CCR8, cynomolgus monkey CCR8 and human CCR4 was tested respectively, 5×10⁴ test cells were added to each well of a 96-well U-shaped plate and centrifuged to discard the supernatant, 100 μL/well of the purified Fab antibody was added and the mixture was incubated on ice for 60 minutes. After washing away the unbound primary antibody, 50 μL of a secondary antibody solution (Anti-human IgG, F(ab′)2-AF647, Jackson Immuno Research) was added to each well and the mixture was incubated on ice for 30 minutes. After washing, 50 μL of a PI/BSA solution at 5 μg/mL was added to each well and the mixture was incubated on ice for 5 minutes. Then excess secondary antibody was washed away with 0.5% BSA, the cells were resuspended by adding a PBS solution, and binding of the antibody to the cells was detected using a flow cytometer (Intellicyte iQue).
B16: no binding.

Each binder was assayed against T2, human CCR8 (assay: cell-based or functional assay).
For B14, the “ADCC EC50 (nM), NK92-CD16A effectors, HEK293-hCCR8 targets, LDH release” value was 0.1 nM. With B15 the “ADCC EC50 (nM), NK92-CD16A effectors, HEK293-hCCR8 targets, LDH release” value was 0.21 nM.
